{
  "source": "paper PMC10249821",
  "molecular_target": "gp41 of HIV-1 IIIB (HIV-1 IIIB) (UniProt P04578)",
  "data": [
    {"substance": "biosynthesized enfuvirtide (peptide)", "values": [
      {"measurement": "IC50 of inhibition of HIV-1 IIIB infection of MT-4 cells (MTT assay of virus-induced cytopathic effect, 5 days post infection)", "result": 45.3, "unit": "nM"}
    ]},
    {"substance": "Enfuvirtide Primary Reference Standard (peptide)", "values": [
      {"measurement": "IC50 of inhibition of HIV-1 IIIB infection of MT-4 cells (MTT assay of virus-induced cytopathic effect, 5 days post infection)", "result": 18, "unit": "nM"}
    ]}
  ]
}
